Assays:
[1] = system: CD-1 mice; experiment: Gastrointestinal transit in post-operative inflammatory ileus model; format: in vivo; settings: 2 mg/kg one hour before surgery; transit 48 hr after operation, 45 minutes; FIG. 5
Procedure: On the day of study, upper gastrointestinal transit was measured using the FITC-dextran method. This method provides both, a measure of gastrointestinal transit and a readout of the pattern of distribution of the test meal along the gastrointestinal tract. Mice were fed a test meal of […] of FITC-dextran solution (5 mg/ml of 70,000 molecular weight dextran conjugated to fluorescein-isothiocyanate in 0.5% methylcellulose/deionized water) administered intragastrically by an 18 gauge curved feeding tube. Following oral administration of the FITC-dextran test meal, mice were returned to their home cages. It was shown that a 30 min test period was the optimum duration for detecting accelerated transit, while a 45 min test period was optimum for detecting delayed transit. Following the appropriate test period, mice were sacrificed by carbon dioxide exposure. The entire gastrointestinal tract from the lower esophageal sphincter to the terminal colon was removed. […] Aliquots of the cleared supernatant were read in duplicate on a 96-well fluorescence plate reader to quantify the magnitude of the fluorescent signal in each segment of bowel. […] The GC is calculated in the lower panel for statistical comparison. […]
All mice received an oral test meal of FITC-dextran 48 hr after the operation. Gastrointestinal transit was determined 45 minutes after oral feeding. […]

[2] = system: CD-1 mice; experiment: Myeloperoxidase histochemistry of intestinal muscularis, post-operative inflammatory ileus; format: in vivo; settings: 2 mg/kg one hour before surgery; tissue 48 hr after operation; FIG. 6, 7
Procedure: Myeloperoxidase histochemistry was performed on tissues harvested from the mid-small bowel of the mice 48 hr after the operation.
Briefly, segments of mid-small bowel were collected from the centrifuge tubes described in Example 12. Whole mounts of the muscle layer were prepared by pinning the tissue flat in a Sylgard® lined Petri dish and stretching the tissue to 2 times its length and 1.5 times its width. The mucosa was removed by fine dissection. The muscularis whole mounts were then fixed with 100% ethanol for 1 hr, washed 3 times with PBS, and incubated for 20 min in PBS containing 0.1% hydrogen peroxide and 1 mg/ml Hanker-Yates reagent. Following a second wash with PBS, the whole mounts were mounted on glass slides, cover-slipped, and viewed on an optical microscope. Myeloperoxidase containing leukocytes were counted in 6 to 8 adjacent 200× optical fields of view and the mean cell counts were calculated and recorded.

B1: SEQ ID NO: 80: human A2G-GLP2 peptide in murine IgG2a scaffold (protein)
chain: HGDGSFSDEMNTILDNLAARDFINWLIQTKITDGSGGGSGTTVTVSAEPRGPTIKPCPPCKCPAPNAAGGPSVFIFPPKIKDVLMISLSPIVTCVVVDVSEDDPDVQISWFVNNVEVHTAQTQTHREDYNSTLRVVSALPIQHQDWMSGKEFKCKVNNKDLPAPIERTISKPKGSVRAPQVYVLPPPEEEMTKKQVTLTCMVTDFMPEDIYVEWTNNGKTELNYKNTEPVLDSDGSYFMYSKLRVEKKNWVERNSYSCSVVHEGLHNHHTTKSFSRTPGK
modifications: Human A2G-GLP2 peptide in murine IgG2a scaffold
- effect on surgically induced delay in gastrointestinal transit [1]: significant improvement in transit
- number of MPO-positive leukocytes infiltrating small intestinal muscle layer [2]: significantly reduced the number of infiltrating cells

Source: patent US20070212355A1 (priority 2005, published 2007)
